Results: patent US20160251421A1 (AstraZeneca / MedImmune, published 2016)
Where a chain is given by its changes, count along the chain named.

T1: biotinylated recombinant human Angiopoietin-2 (R&D Systems, Inc. Cat. No. BT623) (human, UniProt O15123 19-496, limits assumed, biotinylated (sites not given))
T1 construct: Bought reagent; also called Ang-2; Ang2
T1 sequence (looked up): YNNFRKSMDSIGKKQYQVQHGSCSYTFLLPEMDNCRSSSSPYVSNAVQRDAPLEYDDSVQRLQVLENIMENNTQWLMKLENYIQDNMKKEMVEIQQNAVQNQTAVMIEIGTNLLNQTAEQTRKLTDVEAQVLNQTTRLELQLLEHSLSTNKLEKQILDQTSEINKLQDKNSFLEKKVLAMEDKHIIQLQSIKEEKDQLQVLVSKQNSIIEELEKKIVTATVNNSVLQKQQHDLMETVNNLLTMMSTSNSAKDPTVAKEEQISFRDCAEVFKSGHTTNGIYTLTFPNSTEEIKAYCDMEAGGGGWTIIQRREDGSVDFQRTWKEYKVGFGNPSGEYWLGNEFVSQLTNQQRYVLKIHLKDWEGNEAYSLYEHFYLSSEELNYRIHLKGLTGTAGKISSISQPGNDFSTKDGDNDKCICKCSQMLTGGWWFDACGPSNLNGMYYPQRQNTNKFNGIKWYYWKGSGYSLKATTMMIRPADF

B1: anti-Ang-2 monoclonal antibody 5.103.1 (antibody, V domains shown)
VH: QVQLVQSGAEVKKPGASVKVSCKASGYTFTGYYLYWVPQAPGQGLEWMGWISPNSGGTNYAQKFQGRVTMTRDTSISTAYMELSRLRSDDTAVYYCARDQVIAVAGPFDYWAQGTLVTVSS
VL: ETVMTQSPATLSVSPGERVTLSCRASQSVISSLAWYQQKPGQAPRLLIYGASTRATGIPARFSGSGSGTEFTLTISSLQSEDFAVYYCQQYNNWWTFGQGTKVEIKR
notes: Fully human IgG kappa from XenoMouse hybridoma (strains XMG2 and XMG4); IgG purified from hybridoma supernatant; also called mAb 5.103.1
B2: anti-Ang-2 monoclonal antibody 5.86.1 (antibody, V domains shown)
VH: B1 VH with Y33H, L34M, P38R, M48L, S52N, A97V, V101G, V104A, A112C
VL: DIRMTQSPSSLSASVGDRVTITCRASQRISTYLNWYQQKPGKAPKFLIYAASSLQSGVPSRFSGSGSGTDFTLTISSLQPEDFATYYCQQSYTTPFTFGPGTKVDIKR
notes: Fully human IgG kappa from XenoMouse hybridoma (strains XMG2 and XMG4); IgG purified from hybridoma supernatant; also called mAb 5.86.1
B3: anti-Ang-2 monoclonal antibody 5.28.1 (antibody, V domains shown)
VH: EVQLVESGGIVVQPGGSLRLSCAASGFTFDDYTMHWVRQTPGKGLEWVSLISWDGGSTYYADSVKGRFTISRDNSKNSLYLQMNSLRTEDTALYYCAKDIDIAVAGTGFDHWGQGTLVTVSS
VL: EIVMTQSPATLSVSPGERATLSCRASQSVTSNLAWYQQKPGQAPRLLIYGALIRATGIPARFSGSGSGTEFTLTISSLQSEDFAVYYCQQYNNWPFTFGPGTKVDIKR
notes: Fully human IgG kappa from XenoMouse hybridoma (strains XMG2 and XMG4); IgG purified from hybridoma supernatant; also called mAb 5.28.1
B4: anti-Ang-2 monoclonal antibody 5.88.3 (antibody, V domains shown)
VH: EVQMVESGGGLVQPGGSLRLSCAASGFTLRSYWMSWVRQAPGKGLEWVANIKEDGSEKYHVDSVKGRFTISRDNAENSLFLQMSSLRAEDTAVYYCARDMEASAGLFDYWGQGTLVTVSS
VL: EIVMTQSPATLSVSPGERAILSCRASQSISSNLAWYQQKPGQAPRLLIYGASTRATGIPARFSGSGSGTEFTLTISSLQSEDFAVYYCQQYNYWWTFGQGTKVEIKR
notes: Fully human IgG kappa from XenoMouse hybridoma (strains XMG2 and XMG4); IgG purified from hybridoma supernatant; also called mAb 5.88.3
B5: anti-Ang-2 monoclonal antibody 5.101.1 (antibody, V domains shown)
VH: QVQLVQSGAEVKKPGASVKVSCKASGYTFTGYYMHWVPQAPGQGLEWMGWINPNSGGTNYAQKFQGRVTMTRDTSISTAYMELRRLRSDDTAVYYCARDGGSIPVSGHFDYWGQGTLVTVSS
VL: B4 VL with I20T, I29L, S30I, Y49F, Q89H, Y93N
notes: Fully human IgG kappa from XenoMouse hybridoma (strains XMG2 and XMG4); IgG purified from hybridoma supernatant; also called mAb 5.101.1
B6: anti-Ang-2 monoclonal antibody 3.3.2 (antibody, V domains shown)
VH: EVQLVESGGGLVQPGGSLRLSCAVSGFTFSSYWMSWVRQAPGKGLEWVANIKQDGSEKYYVDSVKGRFTISRDNAKNSLYLQMNSLRAEDTAVYYCARDQGIAVAGPFDYWGQGTLVTVSS
VL: B4 VL with I20T, S28T, I29V, N32D, T53I, Y87S, N92Y, Y93N
notes: Fully human IgG kappa from XenoMouse hybridoma (strains XMG2 and XMG4); IgG purified from hybridoma supernatant; also called mAb 3.3.2
B7: anti-Ang-2 monoclonal antibody 3.31.2 (antibody, V domains shown)
VH: EVQLVESGGGLVQPGGSLRLSCAASGFTFSSYWMSWVRQAPGKGLEWVANIKQDGSDKYYVDSVKGRFTISRDNAKNSLYLRMNSLRAEDTAVFYCARDMGSGWFDYWGQGTLVTVSS
VL: B4 VL with I2V, I20T, I29V, S30G, Y87C, Y93H
notes: Fully human IgG kappa from XenoMouse hybridoma (strains XMG2 and XMG4); IgG purified from hybridoma supernatant; also called mAb 3.31.2
B8: anti-Angiopoietin-2 monoclonal antibody 3.19.3 (antibody, V domains shown)
VH: QVQLVESGGGVVQPGRSLRLSCAASGFTFTNYGMHWGRQAPGKGLEWVAVISHDGNNKYYVDSVKGRFTISRDNSKNTLYLQMNSLRAEDTAVYYCAREGIDFWSGLNWFDPWGQGTLVTVSS
VL: EIVLTQSPGTLSLSPGERATLSCRASQSITGSYLAWYQQKPGQAPRLLICGASSWATGIPDRFSGSGSGTDFTLTISRLEPEDFAVYYCQQYSSSPITFGQGTRLEIKR
notes: Fully human IgG kappa from XenoMouse hybridoma (strains XMG2 and XMG4); IgG purified from hybridoma supernatant

Target: T1, biotinylated recombinant human …
Test: competitive binding ELISA: biotinylated Angiopoietin-2 on plate-coated Tie-2/Fc, purified mAb

Row | Efficacy (ratio of bound Angiopoietin-2 with mAb (30 µg/ml) versus without mAb) [ratio] | Binder
1 | 0.232 | B1
2 | 0.384 | B2
3 | 0.389 | B3
4 | 0.403 | B4
5 | 0.364 | B5
6 | 0.388 | B6
7 | 0.375 | B7
8 | 0.395 | B8
